Laboratory results reported in patent US20040110922A1.

Key:
Test in all cases: cell-based or functional assay
[1] = molecular target: gp120 of HIV-1 MN (laboratory strain, on virus) (HIV-1 MN)
[2] = molecular target: gp120 of HIV-1 clade C primary isolate DU151 (R5), on virus (HIV-1 DU151)
[3] = molecular target: gp120 of HIV-1 clade C primary isolate DU368 (R5), on virus (HIV-1 DU368)
[4] = molecular target: gp120 of HIV-1 clade C primary isolate DU179 (R5/X4), on virus (HIV-1 DU179)
[5] = molecular target: gp120 of HIV-1 IIIB (laboratory strain, on virus) (HIV-1 IIIB)
[6] = molecular target: gp120 of HIV-1 clade B primary isolate GV, on virus (HIV-1 GV)
[7] = molecular target: gp120 of HIV-1 clade B primary isolate JR-FL, on virus (HIV-1 JR-FL)
[8] = molecular target: gp120 of HIV-1 clade B primary isolate PVO, on virus (HIV-1 PVO)
[9] = molecular target: gp120 of HIV-1 clade B primary isolate P15, on virus (HIV-1 P15)
[10] = molecular target: gp120 of HIV-1 clade C primary isolate DU422 (R5), on virus (HIV-1 DU422)
[11] = molecular target: gp120 of HIV-1 clade B primary isolate Bal, on virus (HIV-1 Bal)

Substance: product of clone 611-2, CD4(V1 + V2)-hIgG1 (from UniProt P01730 26-203) (Fc fusion)
- ID50 (nM), protection of MT-2 cells from virus-induced cell killing [1]: < 0.41 nM
- % reduction in p24 in PMBC at 890 nM [2]: 63%
- % reduction in p24 in PMBC at 890 nM [3]: 53%
- % reduction in p24 in PMBC at 890 nM [4]: 78%
- ID50 (nM), protection of MT-2 cells from virus-induced cell killing [5]: 0.79 nM
- % reduction in p24 in PMBC at 890 nM [6]: 88%
- % reduction in p24 in PMBC at 890 nM [7]: 100%
- ID90 (nM), 90% reduction of p24 production in PMBC [7]: 8.2 nM
- % reduction in p24 in PMBC at 890 nM [8]: 96%
- % reduction in p24 in PMBC at 890 nM [9]: 94%
- % reduction in p24 in PMBC at 890 nM [10]: 9%
- % reduction in p24 in PMBC at 890 nM [11]: 100%
- ID90 (nM), 90% reduction of p24 production in PMBC [11]: 5.3 nM
